The results in this text go back to article PMC10873556, “G-quadruplex DNA structure is a positive regulator of MYC transcription”.

The target of data set [1] is T1, SP1 (human, UniProt P08047 1-785). Put plainly: BLI; 100 mM KCl, 12.5 mM MgCl2, 0.01 mM Zn(OAc)2; apparent, most abundant population, 2:1 heterogeneous ligand fit; BLI: 25 mM HEPES pH 7.5, 100 mM KCl, 12.5 mM MgCl2, 20% glycerol, 0.1% Igepal CA-630, 0.01 mM Zn(OAc)2, 1 mM DTT, 3% BSA, temperature not stated; pull-down: oligos annealed in 10 mM Tris-HCl pH 7.4 with (G4) or without (ds) 100 mM KCl. Conditions: protein: recombinant; intramolecular G4. A general note: Biolayer interferometry detects binding as a change in optical thickness at a sensor tip.

The target of data set [2] is T1, SP1. The data set is described as follows: BLI; 100 nM SP1; negligible binding; BLI: 25 mM HEPES pH 7.5, 100 mM KCl, 12.5 mM MgCl2, 20% glycerol, 0.1% Igepal CA-630, 0.01 mM Zn(OAc)2, 1 mM DTT, 3% BSA, temperature not stated; pull-down: oligos annealed in 10 mM Tris-HCl pH 7.4 with (G4) or without (ds) 100 mM KCl. The conditions noted are these: protein: recombinant.

T1 sequence (P08047 whole entry): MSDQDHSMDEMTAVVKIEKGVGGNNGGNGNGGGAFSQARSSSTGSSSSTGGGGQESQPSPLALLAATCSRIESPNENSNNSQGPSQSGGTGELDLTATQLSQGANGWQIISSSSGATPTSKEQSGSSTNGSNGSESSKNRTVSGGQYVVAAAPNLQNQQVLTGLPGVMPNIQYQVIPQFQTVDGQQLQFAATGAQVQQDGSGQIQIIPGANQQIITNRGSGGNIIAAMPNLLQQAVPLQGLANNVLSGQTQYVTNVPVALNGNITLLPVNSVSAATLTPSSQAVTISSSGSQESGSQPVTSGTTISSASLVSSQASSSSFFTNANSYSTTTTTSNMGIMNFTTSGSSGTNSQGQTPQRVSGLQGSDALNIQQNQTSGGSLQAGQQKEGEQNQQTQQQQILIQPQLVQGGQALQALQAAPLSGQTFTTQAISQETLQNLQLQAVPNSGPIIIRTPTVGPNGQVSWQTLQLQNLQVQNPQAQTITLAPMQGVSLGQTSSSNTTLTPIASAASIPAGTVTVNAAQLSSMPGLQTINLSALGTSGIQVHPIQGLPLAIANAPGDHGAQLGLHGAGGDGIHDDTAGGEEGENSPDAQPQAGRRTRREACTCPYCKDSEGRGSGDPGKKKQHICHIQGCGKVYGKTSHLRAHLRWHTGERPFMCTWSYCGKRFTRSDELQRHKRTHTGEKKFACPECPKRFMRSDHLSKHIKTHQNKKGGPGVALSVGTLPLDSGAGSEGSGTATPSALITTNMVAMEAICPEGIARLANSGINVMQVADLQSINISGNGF

In the case of TTTTTGGGGAGGGTGGGGAGGGTGGGGAAGG (structured_DNA) [MYC G4 ss], the Kd in data set [1] is 5.6 nM. TTTTTTAAGAGCGTTAAGAGCGTGAACAAGG (ssDNA) [MYC MUT ss]: the binding result in data set [2] was “no binding”.
